Assay results reported in the supplement of paper PMC12042874.
± gives the uncertainty stated by the source.

Assay: amyloid nucleation score (Sup35N fusion, yeast selection) (log enrichment); library NNK2; higher = more nucleation; inactive = no reads after selection
In short: (§1)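 Random libraries were run with three technical output replicates. In each, psi-negative yeast expressing Sup35N fused to peptides of 20 random codons were induced 24 hours with 100 μM copper sulfate and grown 7 days at 30°C on medium lacking adenine and uracil, and input and output plasmid inserts were Illumina-sequenced. The nucleation score is the DiMSum log enrichment of output over input reads, centred on the mode score of non-aggregating sequences, and sequences under 100 input reads were excluded.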
AAKTNCDC gave an amyloid nucleation score of -0.01 ± 1. AALHNYAVSFCFMSPMKQKT showed an amyloid nucleation score of -0.542 ± 0.76. AALNDNTSL gave an amyloid nucleation score of 5.71 ± 0.079. With AAVFMLQRLDFINRMASASF the amyloid nucleation score was 3.72 ± 0.055. In the case of ACCLIAIWRPI, the amyloid nucleation score is reported as 5.47 ± 0.085. For ACFNLEKIVINYFWFS, the amyloid nucleation score was 6.999 ± 0.039. Work on ACFWSVIVHTMKRTVQPQPK yielded an amyloid nucleation score of 3.6 ± 0.09. In the case of ACKVYKLAMNIVLGGTGWSD, the amyloid nucleation score is reported as 4.8 ± 0.077. Substance ACLGHSLAVVRTMTDSRKRL has an amyloid nucleation score of 0.367 ± 0.74. Substance ACLHFVSYSELAVFDFSFGK has an amyloid nucleation score of 6.89 ± 0.079. ACRAICVPKGVGYWFCVTSE gave an amyloid nucleation score of 0.54 ± 0.51. Work on ACRELVWLG yielded an amyloid nucleation score of 0.354 ± 0.65. In the case of ACSVNCLRECNR, the amyloid nucleation score is reported as “inactive”. ADATGVECPIYDRRRVNRTN showed an amyloid nucleation score of -0.235 ± 0.8. Work on ADLWKLGLRAILELGPL yielded an amyloid nucleation score of -0.165 ± 1. ADWMFRFMKERRQMVWNTRI gave an amyloid nucleation score of 0.044 ± 1.1. AEDFVLAEEYI gave an amyloid nucleation score of -0.285 ± 0.76. With AEEQLLWFCYFRELKILNIF the amyloid nucleation score was “inactive”. Substance AEKQVCLAQKFLNLQLIFRW has an amyloid nucleation score of 1.72 ± 0.12. With AEYIWWMVPVMKELVNEV the amyloid nucleation score was 0.362 ± 0.38. AEYKCAFFMSLNAVALDKRY gave an amyloid nucleation score of 3.2 ± 0.12. With AFAFINIWKHLYIFQGQPSL the amyloid nucleation score was “inactive”. Substance AFCLTLTGACLSMSDVARFT has an amyloid nucleation score of 4.19 ± 0.098. With AFELSVTLCSTEMLQHRCIG the amyloid nucleation score was -0.081 ± 1.1. AFFNE showed an amyloid nucleation score of 6.023 ± 0.039. For AFGRTTKKDVCLFGYPKQVE, the amyloid nucleation score was -0.235 ± 0.46. AFIRPIVSLVVLSQGV showed an amyloid nucleation score of 0.827 ± 0.6. AFLFSRDCMERWTMYDGLWW showed an amyloid nucleation score of -0.063 ± 0.42. AFTLQIHGFSVIVTASLQVS showed an amyloid nucleation score of -0.642 ± 1.1. Work on AFVCMRVVLICKIRLNFVRA yielded an amyloid nucleation score of -0.519 ± 0.5. AFYWVWDLDSGICNVSIFRL showed an amyloid nucleation score of -0.995 ± 0.34. Work on AGHWLCLVTNFVVRGGDKLF yielded an amyloid nucleation score of 2.76 ± 0.13. For AGKFSWDNPYILLVNTI, the amyloid nucleation score was “inactive”. AGMHLRVWHSDTHHWLLLNR gave an amyloid nucleation score of 3.76 ± 0.074. In the case of AGSARRLGLMPRGSGYALGW, the amyloid nucleation score is reported as 1.44 ± 0.17. AILNAVGCNWGTRCDGLSVQ showed an amyloid nucleation score of -0.213 ± 0.48. In the case of AILYDHSYSYWVSFRNVKCK, the amyloid nucleation score is reported as 0.215 ± 0.65. In the case of AINLSDKAARVPLFK, the amyloid nucleation score is reported as -0.093 ± 0.34. In the case of AISPVLC, the amyloid nucleation score is reported as 1.9 ± 0.43. In the case of AITSLYSRSLFLVLTCTVCF, the amyloid nucleation score is reported as 5.683 ± 0.055. With AIVDFTKNFIQCAY the amyloid nucleation score was “inactive”. With AIWVMVANSMHCCVA the amyloid nucleation score was 8.622 ± 0.027. For AKGLG, the amyloid nucleation score was 1.52 ± 0.31. For AKHERSIMVDVMSGRCSTLS, the amyloid nucleation score was 1.07 ± 0.24. Work on AKLEVQA yielded an amyloid nucleation score of -0.978 ± 0.36. Substance AKPTRGSCSGT has an amyloid nucleation score of 2.79 ± 0.12. AKVCFFKHESPMGQVGAY showed an amyloid nucleation score of -1.2 ± 0.54. For AKVSSMVQECNLYLELETRL, the amyloid nucleation score was “inactive”. AKYSSLKNMLYGFRRDANMG gave an amyloid nucleation score of 0.296 ± 0.65. For ALDGVRNSEMGKRVSGVCEY, the amyloid nucleation score was 0.89 ± 0.28. ALEFNT gave an amyloid nucleation score of 4.14 ± 0.1. Substance ALENSDSELCETAWFFHFMH has an amyloid nucleation score of 0.185 ± 0.8. For ALFQECYPGMGNYQGSVATT, the amyloid nucleation score was 1.09 ± 0.35. Work on ALFTLRVMLTTYYWQGMAEF yielded an amyloid nucleation score of 0.296 ± 0.31. In the case of ALIKTLYY, the amyloid nucleation score is reported as -0.305 ± 0.48. Work on ALILECRVRSRS yielded an amyloid nucleation score of 4.16 ± 0.12. Substance ALISSPANCAISWITCILVV has an amyloid nucleation score of 5.947 ± 0.034. For ALIYCVFSFPFEAYDYMRFR, the amyloid nucleation score was “inactive”. With ALLDCMWCTCVCKVSSGVVH the amyloid nucleation score was “inactive”. In the case of ALLQICCSFIIYHTLLPAPA, the amyloid nucleation score is reported as 6.11 ± 0.064. Substance ALLWWRVKLSAHYRYGLNYW has an amyloid nucleation score of 0.27 ± 0.4. Work on ALMLWKCKARTCISPQRRGV yielded an amyloid nucleation score of 0.448 ± 0.4. Work on ALSNGNVLHGLSMLSYMHCW yielded an amyloid nucleation score of -0.388 ± 1.1. ALSSNPVLSCKLC gave an amyloid nucleation score of 6.917 ± 0.027. ALWVKGMFGGTMTRGILFLC gave an amyloid nucleation score of -0.369 ± 1.1. With ALYCERCYWPV the amyloid nucleation score was 0.092 ± 0.53. ALYETTVPLLVWLGA showed an amyloid nucleation score of 0.463 ± 0.24. AMAVLALHTVRSQLP showed an amyloid nucleation score of 5.988 ± 0.037. In the case of AMFSEVYASHQVVPYPLSLS, the amyloid nucleation score is reported as 0.746 ± 0.62. Substance AMPSRDLITR has an amyloid nucleation score of 2.52 ± 0.075. In the case of AMRGI, the amyloid nucleation score is reported as 1.26 ± 0.23. AMVLFDGNVLWIHDRSCRRI gave an amyloid nucleation score of 0.862 ± 0.53. With AMYEH the amyloid nucleation score was 0.518 ± 0.46. AMYIIAFSPTK showed an amyloid nucleation score of 1.36 ± 0.67. With ANGIFAEGGVREDSIH the amyloid nucleation score was “inactive”. Work on ANGLVPYVTFLVLYALHTGT yielded an amyloid nucleation score of 1.41 ± 0.38. ANHVSKDIFVNCEVKVPHVW gave an amyloid nucleation score of 5.937 ± 0.051. Work on ANPTADP yielded an amyloid nucleation score of 0.578 ± 0.29. ANRWSMQGSERASSANWHRW showed an amyloid nucleation score of 4.63 ± 0.054. With ANSNIHLVPMTLSTDEVPLP the amyloid nucleation score was 0.413 ± 0.43. In the case of APCNKESIKRARGWAVRWSW, the amyloid nucleation score is reported as 3.12 ± 0.077. APFARSCDNWILGIFVFILG showed an amyloid nucleation score of 6.125 ± 0.042. APFCSIVTTDVP showed an amyloid nucleation score of -0.363 ± 1.1. Substance APKGMTLFPQMLTLMCNTVG has an amyloid nucleation score of 0.56 ± 0.74. Substance APPLTLELQYGWPLQRPLTK has an amyloid nucleation score of 0.275 ± 0.33. AQGILVLLSSD showed an amyloid nucleation score of 0.23 ± 0.47. Substance AQISVSYGIWDSCTC has an amyloid nucleation score of 8.773 ± 0.032. Work on AQTWMAKTISKDAVGGSPLS yielded an amyloid nucleation score of 0.272 ± 0.56. For ARLLSG, the amyloid nucleation score was 0.626 ± 0.5. ARNTDNPMSNGPYIWIGPY gave an amyloid nucleation score of 1.21 ± 0.2. In the case of ARRKVSHNV, the amyloid nucleation score is reported as 0.205 ± 0.77. In the case of ARSNFLFRHNILFFVYFITS, the amyloid nucleation score is reported as -1.48 ± 1.1. Work on ARWLSSAYSMIYEFSLLKSW yielded an amyloid nucleation score of 0.706 ± 0.74. ASDRGI gave an amyloid nucleation score of 0.532 ± 0.18. In the case of ASDRWMVYLIHVTSCYVLRV, the amyloid nucleation score is reported as -0.062 ± 0.41. For ASELLGYMCDIVASLGVVRY, the amyloid nucleation score was 0.747 ± 0.43. ASFMPLFGGLGFLQKNEITM gave an amyloid nucleation score of 3.7 ± 0.077. ASGQWGPD gave an amyloid nucleation score of -0.67 ± 0.76. In the case of ASGVIDIGYIIVEVVMIFYI, the amyloid nucleation score is reported as -0.697 ± 0.5. Work on ASITYNACLKPLQM yielded an amyloid nucleation score of 0.313 ± 0.64. For ASIVNYHFD, the amyloid nucleation score was “inactive”. For ASLAEKGL, the amyloid nucleation score was -0.497 ± 0.38. ASLHWKMFLMAFLTASIVHA showed an amyloid nucleation score of -0.337 ± 0.55. With ASLSMSLFFALSVA the amyloid nucleation score was “inactive”. ASRKSLPEWLWIAWRHASGT showed an amyloid nucleation score of 1.29 ± 0.15. ASRMPSGVRSFWAKPR gave an amyloid nucleation score of 0.321 ± 0.32. For ASRNLMYVHNFSSAGLKVLP, the amyloid nucleation score was 0.178 ± 0.65. ASSALHRVMVLAVTFFRHSS showed an amyloid nucleation score of 0.839 ± 0.41. Substance ASVILTEPFMQGFSIYVGAG has an amyloid nucleation score of -0.746 ± 0.49. Substance ASVLTDPGVRSGRLRVCVGQ has an amyloid nucleation score of -0.121 ± 0.35. For ASYLLKVVVYIHLSGSHGVD, the amyloid nucleation score was 4.55 ± 0.068. Work on ATDADGRLISY yielded an amyloid nucleation score of 1.31 ± 0.25. ATFFM showed an amyloid nucleation score of -0.011 ± 1.1. ATGMIPVNLQATIWEVHEVG showed an amyloid nucleation score of 2.68 ± 0.21. ATLGTVRCYRKRAIFFEGHL showed an amyloid nucleation score of 1.17 ± 0.45. ATLNVLDPHFYNMY gave an amyloid nucleation score of -0.691 ± 0.41. With ATTFKPAHLSRYMWLATYPV the amyloid nucleation score was 0.765 ± 0.41. For ATYIGRSNVSRWVVRAMSSS, the amyloid nucleation score was 5.25 ± 0.073. Work on AVAASLMFYVCFITADIADM yielded an amyloid nucleation score of 0.859 ± 0.74. AVHDGFDRNMAIKGTGGRWW gave an amyloid nucleation score of 3.79 ± 0.098.

Assay: amyloid nucleation score (Sup35N fusion, yeast selection) (log enrichment); library NNK3; higher = more nucleation; inactive = no reads after selection
In short: as §1
In the case of YYGMMYEGGYAVIDIGLGHL, the amyloid nucleation score is reported as “inactive”. In the case of YYIPFASFVSQTCY, the amyloid nucleation score is reported as “inactive”. With YYLSFVKKCNDSEVIWTKSV the amyloid nucleation score was “inactive”. With YYLVSHWWFGQCFDHVVS the amyloid nucleation score was “inactive”. For YYPLLIPLY, the amyloid nucleation score was “inactive”. Work on YYWMAWRTLGAVRAG yielded an amyloid nucleation score of -0.458 ± 0.5.
